B1: KDGA (Thermoplasma acidophilum DSM 1728) (protein)
chain: MYKGIVTPMITPMGQNGEIDYRATEILIDNLADFGVDGLFPMGSTGLFPMFSTDEKKKFLGFVRDHSKKIEVYAGVGSSSTQESVELSKYTEDIGIKVRVLMPTYYIKPDEDWMYRHFSTVISAASNDLFIYNIPQLSGSWISESLIEKLTREFSNVKGIKDSSGDMRFFSRIIRHKNEKFDIFQGQDDLLFLSLSIGASGGVCGLSNISPYITNLYHEFSAGNLEKARKIQIDEVNPLMYAINEATFPAGYYYAFYKMNGIKGGYRAPMVEPTTDQKKKIDQELTKIPKKQ
notes: His-tagged, pProEX HTc, expressed in E. coli BL21-CodonPlus (DE3)-RIL, Ni-NTA purified
B2: LDH (Geobacillus stearothermophilus) (protein)
chain: MKNNGGARVVVIGAGFVGASYVFALMNQGIADEIVLIDANESKAIGDAMDFNHGKVFAPKPVDIWHGDYDDCRDADLVVICAGANQKPGETRLDLVDKNIAIFRSIVESVMASGFQGLFLVATNPVDILTYATWKFSGLPHERVIGSGTILDTARFRFLLGEYFSVAPQNVHAYIIGEHGDTELPVWSQAYIGVMPIRKLVESKGEEAQKDLERIFVNVRDAAYQIIEKKGATYYGIAMGLARVTRAILHNENAILTVSAYLDGLYGERDVYIGVPAVINRNGIREVIEIELNDDEKNRFHHSAATLKSVLARAFTR
notes: synthetic gene, His-tagged, pETDuet-1, expressed in E. coli BL21 (DE3), Ni-NTA purified

Columns and labels:
Assay in all cases: purified protein
purified protein [1] = substrate: CC(=O)C(=O)O; type: biochemical, Thermoplasma acidophilum; conditions: pyruvate and D-glyceraldehyde varied together (0.5-40 mM), one combined Km, 20 mM sodium phosphate pH 7.0, 50 °C
purified protein [2] = substrate: O=C[C@H](O)CO; conditions: pyruvate and D-glyceraldehyde varied together (0.5-40 mM), one combined Km, 20 mM sodium phosphate pH 7.0, 50 °C
purified protein [3] = substrate: CC(=O)C(=O)O; type: biochemical, Geobacillus stearothermophilus; conditions: 0.2 mM NADH, 20 mM sodium phosphate pH 7.0, 50 °C, 0-50 mM pyruvate

| Protein | Km (purified protein [1]) [mM] | Vmax (purified protein [1]) [µmol/min/mg] | kcat (purified protein [1]) [s⁻¹] | kcat/Km (purified protein [1]) [M⁻¹ s⁻¹] | Km (purified protein [2]) [mM] | Vmax (purified protein [2]) [µmol/min/mg] | kcat (purified protein [2]) [s⁻¹] | kcat/Km (purified protein [2]) [M⁻¹ s⁻¹] | Km (purified protein [3]) [mM] | Vmax (purified protein [3]) [µmol/min/mg] | kcat (purified protein [3]) [s⁻¹] | kcat/Km (purified protein [3]) [M⁻¹ s⁻¹] |
| --- | --- | --- | --- | --- | --- | --- | --- | --- | --- | --- | --- | --- |
| B1 | 8.07 ± 1.29 | 17 | 10.5 | 1300 | 8.07 ± 1.29 | 17 | 10.5 | 1300 |  |  |  |  |
| B2 |  |  |  |  |  |  |  |  | 10.95 ± 1.67 | 194 | 117 | 10600 |

From paper PMC6901390, “Cell-Free Enzymatic Conversion of Spent Coffee Grounds Into the Platform Chemical Lactic Acid” (Frontiers in Bioengineering and Biotechnology, 2019)
